Test results as given in the DeepSol protein solubility set.

Test: soluble on expression in E. coli; label from the status in PepcDB or PDB records
In the case of “PIFEEQPINTIYPEESLEGKVSLNCRARASPFPVYKWRMNNGDVDLTSDRYSMVGGNLVINNPDKQKDAGIYYCLASNNYGMVRSTEATLSFGYLDPFPPEERPEVRVKEGKGMVLLCDPPYHFPDDLSYRWLLNEFPVFITMDKRRFVSQTNGNLYIANVEASDKGNYSCFVSSPSITKSVFSKFIPLIPIPERTTKPYPADIVVQFKDVYALMGQNVTLECFALGNPVPDIRWRKVLEPMPSTAEISTSGAVLKIFNIQLEDEGIYECEAENIRGKDKHQARIYVQAFPEWVEHINDTEVDIGSDLYWPCVATGKPIPTIRWLKNGYAYHKGELRLYDVTFENAGMYQCIAENTYGAIYANAELKILALAPTFEMNPMKKKILAAKGGRVIIECKPKAAPKPKFSWSKGTEWLVNSSRILIWEDGSLEINNITRNDGGIYTCFAENNRGKANSTGTLVITDPTRIILAPINADITVGENATMQCAASFDPALDLTFVWSFNGYVIDFNKENIHYQRNFMLDSNGELLIRNAQLKHAGRYTCTAQTIVDNSSASADLVVRGPPGPPGGLRIEDIRATSVALTWSRGSDNHSPISKYTIQTKTILSDDWKDAKTDPPIIEGNMEAARAVDLIPWMEYEFRVVATNTLGRGEPSIPSNRIKTDGAAPNVAPSDVGGGGGRNRELTITWAPLSREYHYGNNFGYIVAFKPFDGEEWKKVTVTNPDTGRYVHKDETMSPSTAFQVKVKAFNNKGDGPYSLVAVINSAQDAPSEAPTEVGVKVLSSSEISVHWEHVLEKIVESYQIRYWAAHDKEEAANRVQVTSQEYSARLENLLPDTQYFIEVGACNSAGCGPPSDMIEAFTKKAPPSQPPRIISSVRSGSRYIITWDHVVALSNESTVTGYKVLYRPDGQHDGKLYSTHKHSIEVPIPRDGEYVVEVRAHSDGGDGVVSQVKISGAPTLSPSLLGLLLPAFGILVYLEF”, the “soluble on expression in E. coli” value is reported as “soluble”.
In the case of “MAKLENPILMAKIGGAQGLRGEVRVSTYTDDPMALGDYGNLVTADGRVFEILEVREGKNVVVVRFRGINDRNAAESLNGLELFIERDNLPDDELDDDEFYYADLEGLEAVDAEGKSYGAVSAVYDFGAGDLLELKGAGRRPALIPFSEAAVLEIDLEAGRILIDPMAAGLIDNPDDKDQNGMSPFGKKLEHHHHHH”, the “soluble on expression in E. coli” value is reported as “not soluble”.
With “MMKKMMVLYNETSGSSESKEIAERFKKAAEARGEAVILQPSNPDIDPEEMRKNAKENQVGVLVVIGGDGTIHHAVQNFKDTIRDYQIGIIPGGTVNNFARVLSIPLKEEDAFETILAGQTTPVDFGMVNQDVMISTLTIGLLADTAANVTQQEKQKYGPLAFTKQFFRLLMKKKKYKLKIDGDERRWHGKAQLLTMTMTNSAGGFTNFDANATPDDGEVHIIILPKLVFYKFVYYLPKIIRGQLNEIPGVVYFSGSQFKISGEKDKKVQTRTDGDPTDDLPIKVTVEAGGLNVFVPETSTSTKE” the “soluble on expression in E. coli” value was “not soluble”.
In the case of “GPGSMAPLPRKALLAITSAHPPFWPDGKRTGLFFSEALHPFNELTAAGFEVDVASETGTFGWDEHSLTQEYLSKEDEKVLHSEHNHFMEKMNKQVFKAGDLAPHDYGLMFVCGGHGALYDFPHAKHLQNIAQDIYKRGGVIGAVCHGPAMLPGIHDENGDSVIKDKTVTGFTTKGEIMIKVIDKMREDHLHTIADMAQTANAEYVPPEDPWDDFCKVDGRIVTGANPQSATNTARDTIKVYEGIVNE”, the “soluble on expression in E. coli” value is reported as “soluble”.
For “MSLKAFLHHLQNEAKLIISLTYCVDGEFALNEIARATLQQYGIVQLSSATNSDSETEAATSKAVKTAYDKAVEAKTTADGKVGLNGNESINGEKTFENRIVAKRNIRISDSPHYASRGDYLNIGANNGDCWFEYKLSNQEIGTLRMHANGDLTYKRQKIYLKMDCWQAIHKRKLKVFTAKRKKREGHHHHHH”, the “soluble on expression in E. coli” value was “not soluble”.
In the case of “MSLDVFVLDTSVFTNPEIYRTFEEDQRGAMETFIHLALNSRAEFYMPTSVYTEMRKIMDVGELWAEFEMVVKIRSPRRFQLTVPADFLYEFIEELRYRINKGLRIAEEHTREASGCEDVGKLIARLREKYREALRQGILDSKEDVDVLLLAYELDGVLVSADEGLRTWADKIGIKLIDPKNFKNILESLVRHRFEGHHHHHH”, the “soluble on expression in E. coli” value is reported as “soluble”.
With “MGNYLNPDNSKFQRAVNSDIYVDKTGLIKYTNRVINTMQAYVCVSRPRRFGKSMAADMLTAYYSRGCDSRELFAGLEIAKDENFGGYLNKYDTVFLNVQEFLSRSSDVKELIARIKQRVIRELTRQYPDVELFDSTDLAETMQDIYAESKCPFVLIIDEWDCIFREFKNDKEAQEKYLDFLRDLIKDKSYIHLAYMTGILPIKKYGTHSALNMFDEFSMIDPGPLASYVGFTESEVEKLCGEYQMDIDEIRNWYDGYSFEEVPSVYSPKSVISCMRLGRLGNYWNQTETFEALQLYIDMNFEGLRDDILSMLAGEEVPVNTGSFTNDMATFRTEDDVLTLLIHLGYLGYRYATKTVFIPNGEIRAEFVNAVSVSDWGEVSNALKNSADTLQAIWQGREKQVAEGIRQAHFETSHIQYNDENALSYTISLALYAARNFYTVHRELSGGKGFADLVFIPRKRFMDKPALVVELKWDKDVAGAITQIREKEYCRSLEEYHGKLLLVGINYDKKTKEHSCKIEEYRK” the “soluble on expression in E. coli” value was “not soluble”.
With “MRDIGGSMSSASTSATIVKRSPPNDTSTSSGVSCDVSPNSMTSPSSGSDQNQNNNSLNKCKCCPYGYHIDLGFVSYAQNVSNGFVSRQGTPTNMTLRGNGADRHLMSPLLDNSIFSDSLDNLMSDFDDVLAPHKEVEKKKTVQDIRSRMQGGYNSDYTTYRRGPPEIPRRAHFEQAKPPPLSRPINLGFSGSRSNTPTQRFNAPNGTGNGYSTALAKTISEIRARNAESPFPDSRVGTPIDLGLHQQNNGHVTPSRFANNRYDDLPPTPTPTFRRAPSQGDLPRGFSTAPSTGPGDFASLRRGREFALPPEQEHHSRRFFSASPKLPRRGLQAGPSIDVESHFTYAQTQNGQKVLARTQSTSTSPPPQAPASAFEPVKPLSNGSPSPTHQVQKPIVTRSIAVSTGPLPAPKPCGECAGLRKELFLAVEKIPPPPPESCHVSTSTVLLEFADQSVGSEPIKHCHVALGTEPTSTREVGTVPVTVRSLHIDTQTDPAASTVDAACSPVLFETQEEAVKVTVAASSSAAAADCEECLKRQDVFTRNVGVGACSISDKICVSCDNQVVEADENEAPGFKTDTKDDQKQRDFEIAKANAVKKLLTNEQKSNFQRGTAVSKSARYDRKRSVDDLDYIVDKKNATSPATSSQEAPPTVPDASESPLTTKVVLKKEVFIEPPKQMLPDPIPARIPRPKISKWAVTSEEEAAETPDEQEEAQDRLTPLRSDMRQLGNRWNRNQVTTASNTTPHLPYSGATSQEDVSDSDAESDCSAHSDATFEVNDDVFDAAPFEVSDRLREALENFNSSILEPGSVAEETVEWSAKLVRHVWMTTAGNSSSRYENVDRFVAELGNLGPQILHMVVNFCDQNGNTALHYAVSHANFAVVSSILDSGECDLDAPNRAGYTAVMLAALSQLDDDMEKAVVHRLFQMGNVNAKASQHGQTALMLAVSHGKKTTTELLLACGANVNEQDQDGSTALMCAAEHGHKELVKMLLAENLVNASLTDVDNSTALSIALENDHREIGVMIYAYLNYGRLDISGPTSTI” the “soluble on expression in E. coli” value was “not soluble”.
In the case of “MFVFGAYWFDCGERAVLPANSRGALRPQCTRLRFWRGRYWHRGAVSALRRVRPLSASTPSPRVLDGSQSLADTPDNVQQLLQHMSQELDSVVQSMVHLEEYALEQVEKLKGAMEADLRKLALYEEEQAFAQKLTEQLQKKEGAVFEAMRHFLFHVVGLQEQTVAITNELQVLHEFVSENHERVELVLESLRERGLFGSRQDVFEGEVKKKLDRFDPEI”, the “soluble on expression in E. coli” value is reported as “not soluble”.
For “MGSDKIHHHHHHMYVDEIHVEKCGPLSVGVYGGNQESDAYERGDAVLAWWDPELQFEFVMIFDTHHKTKNIDYIIEAISERKEKLKELFSYPIHLAFHHTHMYLLALFTDELFIEKCDQDDEELACLICLRKGEFLYWLSVGDCFAYLFHSEKTKNGKGRLNKRKNYEYIGRKNIFAANTPCFTSGVRGLEKGMNHIVMATDGILECDKRRFDDDQSLIEILHDGSCLQIEPVLTNVLQWKGRDCATIIGWSIDTENKRCAN”, the “soluble on expression in E. coli” value was “not soluble”.
With “VNIKTNPFKAVSFVESAIKKALDNAGYLIAEIKYDGVRGNICVDNTANSYWLSRVSKTIPALEHLNGFDVRWKRLLNDDRCFYKDGFMLDGELMVKGVDFNTGSGLLRTKWTDTKNQEFHEELFVEPIRKKDKVPFKLHTGHLHIKLYAILPLHIVESGEDCDVMTLLMQEHVKNMLPLLQEYFPEIEWQAAESYEVYDMVELQQLYEQKRAEGHEGLIVKDPMCIYKRGKKSGWWKMKPENEADGIIQGLVWGTKGLANEGKVIGFEVLLESGRLVNATNISRALMDEFTETVKEATLSQWGFFSPYGIGDNDACTINPYDGWACQISYMEETPDGSLRHPSFVMFR” the “soluble on expression in E. coli” value was “soluble”.
In the case of “MAHHHHHHMSASLKKTALHLFHLAQQAKMDAFAGYHMPISYGRLGVLKEHLYTREVAGIFDVSHVGQYEVRGADRERFLEHVTPVDLQRIRAGHGALTMLTNAQGGIKDDCIVTKMADHLFLVLNAGCKEKDVAHMESVLRESAMKGADVQLVPLDRSLIALQGPQAAAILSEFMDDVPGMGFMQCRQRVNIKGMEVQVTRCGYTGEDGFELSVSNTDIVALVELLMSRKAEMIGLGARDSLRLEAGLNLYGHELTEDINPVAARFMWVISKRRMAEGGFIGYEPIKYLRDNASKGAVPRLRVGLVSTGPVAREKTVIEVGGKPVGEVTSGCPSPCLKKNIAIGYLDRELAKDGVKVDLVVRGRRVAAVVVTPPFVPARYYRKPK”, the “soluble on expression in E. coli” value is reported as “not soluble”.
With “GMNTLLKQLKPYPFARLHEAMQGISAPEGMEAVPLHIGEPKHPTPKVITDALTASLHELEKYPLTAGLPELRQACANWLKRRYDGLTVDADNEILPVLGSREALFSFVQTVLNPVSDGIKPAIVSPNPFYQIYEGATLLGGGEIHFANCPAPSFNPDWRSISEEVWKRTKLVFVCSPNNPSGSVLDLDGWKEVFDLQDKYGFIIASDECYSEIYFDGNKPLGCLQAAAQLGRSRQKLLMFTSLSKRSNVPGLRSGFVAGDAELLKNFLLYRTYHGSAMSIPVQRASIAAWDDEQHVIDNRRLYQEKFERVIPILQQVFDVKLPDASFYIWLKVPDGDDLAFARNLWQKAAIQVLPGRFLARDTEQGNPGEGYVRIALVADVATCVKAAEDIVSLYR” the “soluble on expression in E. coli” value was “soluble”.
In the case of “MGSDKIHHHHHHMKAGISLSLSLALSCSAVAQGQKISVPPVFNIFELVIRQDKNNAYDSLAEKNITASVTGEPGTLAMYSAKKKTNPSVTYMYEIYADSDAYDKHLNSTSYKEFLRNSPDILETSQTRRIDVIPQFLADKKIVQNDSTINNFVIVDVKPELGQAFRHVVLPEMAQSIEREEGVLAMYAAIDKANRNRWYFYEIYASENAYQAHRLTPHFKAYINQTAEMTTYKEAIDIKPGLLMNKGGMRYENE”, the “soluble on expression in E. coli” value is reported as “not soluble”.
In the case of “GPGSMMRRVGDYEILDVVGEGAYSKVKRVRHIPTGCMFVAKIVPKTNQQVENDVRLEISILRRLKHKNIVQLIEILESTNNYYIILEPVMGGDLCDIIVGMDRPLPEQDVAALLIQLVAGVRACHRNGVAHRDLKPENLLLGTDGVLKISDFGLSRLHRESNFQASTNEYAHTLTGTLAYLAPEVFGGSYDAFRADIWSMGCIAYVLLTQNFPFGSTTDPHALEVRIRNGEVSVMPSSVSAEAKNLCKWLLSPRPEDRPTLDAVAQHDFFKRYLPAEYLRMTANRKSPIVHGANMNEFSSQVQEEAPSCSPSTATAKRKHQYVRSGSAARTSPSSSAVAGAATSSNRSSESGRDREDLVSHGTQGESDPGGYCGDV”, the “soluble on expression in E. coli” value is reported as “soluble”.
In the case of “MNSLLAELNRLGVAHATTEDVFIFVDRLFQHFSFLFQAEESGPRRLELVASVFEHLTVECVNDILDACSHPDVNVAETSNTCRPCPSPVPSAPKTVSGAQTSCATPRAPVTLEHHHHHH”, the “soluble on expression in E. coli” value is reported as “not soluble”.
For “MGREFIPLFEDWAATYDQTVQGLDIQYKEAFRGYDHILDAIVRKSGTHVLEFGPGTGNLTAKLLDAGKTVFGIEPSPAMRKLASDKLSGRTEIVDGDFLTFPEPPFQADTIVSSYAFHHLTDEEKRAAIKQYGKYLHLHDKIVFADTVFENAQAYQQAIDKARSQGFYQLANDLETEHYPTLDALKEMFTAEGFAVRFTQQNDFVWIMEAIKRLEHHHHHH”, the “soluble on expression in E. coli” value was “not soluble”.
